# Experimental data as given in publication doi:10.1101/2021.09.21.461216 (bioRxiv, 2021).
# B1: BRI3BP domain identified in the two-hybrid assay, overexpressed in mammalian cells (domain or fragment, UniProt Q8BXV2 85-253, looked up)
# chain: RFVQGVDMFLETLWKVWMELLEVLGLDVSNLSQYFSPASVSNSPTRALVLVGVVLLAYWFLSLTLGFTFSLLHLVFGRFFWLVRVILFSMSCVYILHKYEGEPEHAVLPLCVVVAIYFMTGPMGYWRGSPGGLCSPSVEEKLEHLENQVRLLNIRLNRVLENLDRSKDK
# Molecular target: GST tagged constitutively activated K-Ras4B (GST-K-RasV12) (UniProt P01116-2 1-188, V12)
# Assay: pull-down
binder,measurement,value
B1,fold selectivity for K-Ras over H-Ras,~7 fold
